US20260242478A1 (published 2026)

B1: Phage-1606 (peptide)
peptide: TCSAGAHYSWPKCF
B2: Phage-1605 (peptide)
peptide: SCSAGATYTWPACL
B3: Phage-1632 (peptide)
peptide: TCSAGASWGWPWCL
B4: Phage-1628 (peptide)
peptide: SCAAGATWKWPECL
B5: Phage-1603 (peptide)
peptide: TCSAGALWEWPMCF
B6: Phage-1616 (peptide)
peptide: TCAAGVPYKWPPCL
B7: Phage-1607 (peptide)
peptide: SCAAGAHYPWPECL
B8: Phage-1623 (peptide)
peptide: SCSAGATYQWPYCF
B9: Phage-1600 (peptide)
peptide: TCSAGAGYPWPTCL
B10: Phage-1614 (peptide)
peptide: LCAAGAAWEWPMCF
B11: Phage-1627 (peptide)
peptide: TCAAGATYMWPVCL
B12: Phage-1594 (peptide)
peptide: SCSAFFHFHWPACL
B13: Phage-1620 (peptide)
peptide: LCAAGAYYPWPLCF
B14: Phage-1604 (peptide)
peptide: PCAAGAHYTWPTCL
B15: Phage-1592 (peptide)
peptide: SCAAGAAWGWPACF
B16: Phage-1622 (peptide)
peptide: NCSAGATWPWPMCF
B17: Phage-1621 (peptide)
peptide: TCTAGFSYKWPTCL
B18: Phage-1612 (peptide)
peptide: TCAAGATYEWPSCL
B19: Phage-1608 (peptide)
peptide: SCAEVFNYVWPFCF
B20: Phage-1611 (peptide)
peptide: SCADGAIWEWPWCF
B21: Phage-1618 (peptide)
peptide: RCAAVFSYTWPPCL
B22: Phage-1598 (peptide)
peptide: SCAAGATWAWPACL
B23: Phage-1626 (peptide)
peptide: RCAAGAMWTWPACF
B24: Phage-1610 (peptide)
peptide: SCAAGAMWEWPKCF
B25: Phage-1624 (peptide)
peptide: SCAAGATYSWPACL
B26: Phage-1591 (peptide)
peptide: TCSAGAEYTWPLCF
B27: Phage-1593 (peptide)
peptide: TCAAGATWLWPVCL
B28: Phage-1595 (peptide)
peptide: TCSAGANWVWPLCL
B29: Phage-1597 (peptide)
peptide: SCAAGATYGWPECF
B30: Phage-1629 (peptide)
peptide: TCAAGATWLWPWCL
B31: Phage-1615 (peptide)
peptide: QCSAGATYAWPFCL
B32: Phage-1617 (peptide)
peptide: SCAAGATYTWPFCL
B33: Phage-1609 (peptide)
peptide: TCAAGAAYTWPVCF
B34: Phage-1625 (peptide)
peptide: NCAAGAMYSWPTCL
B35: Phage-1602 (peptide)
peptide: TCSAGAAYEWPECF
B36: Phage-1596 (peptide)
peptide: TCSAGAHWVWPYCL
B37: Phage-1599 (peptide)
peptide: LCSAGAMWEWPLCL
B38: Phage-1630 (peptide)
peptide: TCAAGAVWTWPICF
B39: Phage-1631 (peptide)
peptide: TCADGAFWQWPVCL
B40: Phage-1601 (peptide)
peptide: TCSAGAAWTWPLCF
B41: Phage-1619 (peptide)
peptide: TCSAGATYKWPACF
B42: Phage-1613 (peptide)
peptide: SCSAGAMYTWPTCL

What was measured:
[1] = target: T1, Anti-CD28 Fab (SEQ ID NOs: 696, 697); test: phage ELISA; biotinylated anti-CD28 Fab on neutravidin plate, bound phage detected with anti-M13-HRP
T1 construct: In the phage ELISA the Fab was biotinylated and captured on neutravidin coated plates
T1 sequence (VH, as listed by the source, chain 1 of 2): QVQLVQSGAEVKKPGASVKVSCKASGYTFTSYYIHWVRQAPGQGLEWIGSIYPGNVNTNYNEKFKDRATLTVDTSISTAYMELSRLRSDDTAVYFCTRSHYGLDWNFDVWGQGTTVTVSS
T1 sequence (VL, as listed by the source, chain 2 of 2): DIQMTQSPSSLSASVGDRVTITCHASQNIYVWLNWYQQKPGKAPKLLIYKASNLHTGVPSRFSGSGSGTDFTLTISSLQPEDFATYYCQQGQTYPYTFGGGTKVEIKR
Procedure: (§1) Clonal phage were harvested as crude supematants and screened via standard ELISAs. […] Prior to the addition of clonal phage, wells were incubated with blocking buffer and CD28 antigen or blocking buffer alone. Without washing or aspirating, clonal phage supematants were then added to the wells and incubated for a short time. Wells were then washed followed by detection of bound phage using a horse radish conjugated anti-M13 antibody.

[2] = target: T1, Anti-CD28 Fab (SEQ ID NOs: 696, 697); test: phage ELISA on captured anti-CD28 Fab; wells pre-incubated with CD28 antigen as competitor;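 further: clonal phage from crude supernatants added to wells pretreated with blocking buffer with or without CD28, bound phage read by ELISA with HRP-conjugated anti-M13 antibody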
Procedure: (§2) Clonal phage were harvested as crude supematants and screened via standard ELISAs. […] Prior to the addition of clonal phage, wells were incubated with blocking buffer and CD28 antigen or blocking buffer alone. Without washing or aspirating, clonal phage supematants were then added to the wells and incubated for a short time. Wells were then washed followed by detection of bound phage using a horse radish conjugated anti-M13 antibody. Clonal phage of interest were then sent for sequence analysis.

[3] = target: T2, Anti-CD28 Fab (SEQ ID NOs: 696, 697); test: phage ELISA; biotinylated anti-CD28 Fab captured on neutravidin plate, clonal phage detected with HRP anti-M13 antibody
T2 construct: In the phage ELISA the Fab was biotinylated and captured on neutravidin coated plates
T2 sequence (VH, as listed by the source, chain 1 of 2): as the sequence (VH, as listed by the source, chain 1 of 2) above
T2 sequence (VL, as listed by the source, chain 2 of 2): as the sequence (VL, as listed by the source, chain 2 of 2) above
Procedure: as §1

[4] = target: T2, Anti-CD28 Fab (SEQ ID NOs: 696, 697); test: phage ELISA on captured anti-CD28 Fab; wells pre-incubated with CD28 antigen as competitor; remark: listed apart in the source;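 further: clonal phage from crude supernatants added to wells pretreated with blocking buffer with or without CD28, bound phage read by ELISA with HRP-conjugated anti-M13 antibody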
Procedure: as §2

[5] = target: Anti-CD28 Fab (SEQ ID NOs: 696, 697); test: phage binding ELISA; Fab-coated wells pre-incubated with CD28 antigen as competitor;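 further: clonal phage supernatants added to wells preincubated with CD28 antigen or blocking buffer only, bound phage detected with HRP-conjugated anti-M13 antibody, buffer-only wells as control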
Target sequence in this assay (VH, as listed by the source, chain 1 of 2): as the sequence (VH, as listed by the source, chain 1 of 2) above
Target sequence in this assay (VL, as listed by the source, chain 2 of 2): as the sequence (VL, as listed by the source, chain 2 of 2) above
Procedure: as §1

[6] = target: Anti-CD28 Fab (SEQ ID NOs: 696, 697); test: phage binding ELISA; biotinylated Fab on neutravidin plate, bound phage detected with anti-M13-HRP
Target sequence in this assay (VH, as listed by the source, chain 1 of 2): as the sequence (VH, as listed by the source, chain 1 of 2) above
Target sequence in this assay (VL, as listed by the source, chain 2 of 2): as the sequence (VL, as listed by the source, chain 2 of 2) above
Procedure: as §1

Binder | Phage binding ELISA, Anti-CD28 Fab signal [1] | Phage binding ELISA, Anti-CD28 Fab signal in the presence of CD28 [2] | Phage binding ELISA, Anti-CD28 Fab signal [3] | Phage binding ELISA, Anti-CD28 Fab signal in the presence of CD28 [4] | Anti-CD28 Fab signal in the presence of CD28 [5] | Anti-CD28 Fab signal [6]
B1 | 1.33 | 0.07 | – | – | – | –
B2 | 1.34 | 0.07 | – | – | – | –
B3 | – | – | 1.22 | 0.07 | – | –
B4 | – | – | 1.24 | 0.07 | – | –
B5 | – | – | – | – | 0.06 | 1.35
B6 | 1.29 | 0.06 | – | – | – | –
B7 | 1.32 | 0.05 | – | – | – | –
B8 | – | – | 1.26 | 0.06 | – | –
B9 | – | – | – | – | 0.06 | 1.36
B10 | 1.3 | 0.06 | – | – | – | –
B11 | – | – | 1.24 | 0.07 | – | –
B12 | – | – | – | – | 0.06 | 1.38
B13 | – | – | 1.28 | 0.06 | – | –
B14 | – | – | – | – | 0.07 | 1.34
B15 | – | – | – | – | 0.09 | 1.39
B16 | – | – | 1.27 | 0.06 | – | –
B17 | – | – | 1.28 | 0.09 | – | –
B18 | 1.32 | 0.09 | – | – | – | –
B19 | 1.32 | 0.07 | – | – | – | –
B20 | 1.32 | 0.07 | – | – | – | –
B21 | 1.29 | 0.07 | – | – | – | –

Binder | Phage binding ELISA, Anti-CD28 Fab signal [1] | Phage binding ELISA, Anti-CD28 Fab signal in the presence of CD28 [2] | Phage binding ELISA, Anti-CD28 Fab signal [3] | Phage binding ELISA, Anti-CD28 Fab signal in the presence of CD28 [4] | Anti-CD28 Fab signal in the presence of CD28 [5] | Anti-CD28 Fab signal [6]
B22 | – | – | – | – | 0.06 | 1.36
B23 | – | – | 1.25 | 0.06 | – | –
B24 | 1.32 | 0.09 | – | – | – | –
B25 | – | – | 1.25 | 0.07 | – | –
B26 | – | – | – | – | 0.08 | 1.4
B27 | – | – | – | – | 0.08 | 1.39
B28 | – | – | – | – | 0.07 | 1.38
B29 | – | – | – | – | 0.07 | 1.36
B30 | – | – | 1.23 | 0.07 | – | –
B31 | 1.29 | 0.08 | – | – | – | –
B32 | 1.29 | 0.07 | – | – | – | –
B33 | 1.32 | 0.08 | – | – | – | –
B34 | – | – | 1.25 | 0.07 | – | –
B35 | – | – | – | – | 0.06 | 1.36
B36 | – | – | – | – | 0.09 | 1.37
B37 | – | – | – | – | 0.07 | 1.36
B38 | – | – | 1.23 | 0.05 | – | –
B39 | – | – | 1.22 | 0.07 | – | –
B40 | – | – | – | – | 0.06 | 1.36
B41 | – | – | 1.29 | 0.05 | – | –
B42 | 1.31 | 0.08 | – | – | – | –
